# Reference: patent US20150010566A1 (AIMM THERAPEUTICS B V, published 2015)
# B1: AT10-003 (antibody, V domains shown)
# VH: QVHLVQSGAEVRKPGASVKVSCKVSGYTLNELSIHWLRQAPGRGLEWMGSFDPEDGETIYAQKFQGRVTMTGDTSTDTAYLELTSLRSEDTALYYCARGWGAVTSPFDFWGQGTLVTVSS
# VL: DIVMTQSPLSLPVTPGEPASISCRSSQSLLHSNGHIYFDWYLQKPGQSPQLLIYLVSKRASGVPDRFSGSGSGTDFTLKISRVEAEDVGVYYCMQALETPFTFGPGTKVHIKR
# B2: AT10-001 (antibody, V domains shown)
# VH: EVQLLESGGGLVQPGGSLRLSCAASGFSFSTYAMSWVRQAPGKGLEWVSGISGSGESTYYADSVKGRFTVSRDNSKNTLYLQMNSLRAEDTAVYYCAKQGDHIAWLLRGINFDYWGQGVLVTVSS
# VL: EIVLTQSPGTLSLSPGERATLSCRASQSVSSSYLAWYQQKPGQAPRLLIYGASTRATGIPDRFSGRGSGTDFTLTISSLEPEDFAVYYCQNYGSPFLFTFGPGTKVDIKR
# B3: AT10-005 (antibody, V domains shown)
# VH: QVQLVQSGAEVKKPGSSVKVSCKASGGAFSNYAISWVRQAPGQGLEWMGGIIPIFGTTNYAQKFQGRVTITADKFTTIAYMELRSLRSEDTAVYYCARHGGVYYYGSASSGWFDPWGQGTLVTVSS
# VL: EIVLTQSPGTLSLSPGERATLSCRASQSVSSSYLAWYQQKPGQAPRLLIFGASTRATGIPDRFSGSGSGTDFTLTISRLEPEDFAVFYCQQYGSLPLTFGGGTKVEIKG
# B4: AT10-002 (antibody, V domains shown)
# VH: QLQLQESGPRLVKPSETLSLTCSVSGVSISSSNYYWGWIRQPPGKGLEWIGTIYHSGSTYYNPSLKSRLIISVDTSKNQFYLQLTSLTAADSAVYYCATGGGFGWSQTYFGYWGQGTLVTASS
# VL: QSALTQPASVSGSPGQSITISCTGTSSDVGAYNYVSWYQHHPGKAPKLMIYDVTYRPSGVSTRFSGSKSGNTASLTISGLQAEDEADYYCSSQSRSSTLVIFGGGTKLTVLG
# B5: AT10-004 (antibody, V domains shown)
# VH: QVQLVQSGAEVRKPGASVKVSCKASGYTFTRHGISWVRQAPGQGLEWMGWISAYTGDTDYAQKFQGRVTMTTDTSTNTAYMELRSLRSDDAAVYYCARLRLQGEVVVPPSQSNWFDPWGQGTLVTVSS
# VL: EIVLTQSPATLSLYPGERATLSCRASQSVSRYLAWYQQKPGQAPRLLIYDASNRATGIPARFSGSGSGTDFTLTISSLEPEDFAVYYCQQRSNWLKITFGQGTRLEIKG
# Columns and labels:
# [1] = biological target: HA of H5N1 A/turkey/Turkey/05 virus (Influenza A virus H5N1 …); assay: cell-based or functional assay
# [2] = biological target: T1, recombinant HA of full length H3 (A/Aichi/2/1968, full length) (Influenza A virus H3N2 A/Aichi/2/1968 …, UniProt P03437 17-530); assay: ELISA; antigen coated 1 µg/ml; recombinant antibody; set-up: concentration or dose not given beside the values
# T1 construct: domain: full length; also called H3N2 A/Aichi/2/1968 Full length; full-length H3 HA protein
# HA of H3N2 HKX-31 virus = HA of H3N2 HKX-31 virus (Influenza A virus H3N2 HKX-31); assay: cell-based or functional assay
# [3] = biological target: HA of Influenza H1N1 (A/Hawaii/31/2007), on infected MDCK-SIAT cells or on virus (Influenza A virus H1N1 A/Hawaii/31/2007); assay: cell-based or functional assay
Binder,"IC50, in vitro virus neutralization on MDCK cells [1] [µg/mL]",OD 450 nm [2] [OD 450 nm],"IC50, in vitro virus neutralization on MDCK-SIAT cells (HA of H3N2 HKX-31 virus) [µg/mL]","IC50, in vitro virus neutralization on MDCK-SIAT cells [3] [µg/mL]"
B1,> 15,1.32,> 15,
B2,> 15,0.953,2.1,> 15
B3,1.3,,,
B4,> 15,0.92,0.25,
B5,,0.491,,
